The values that follow are results of earlier work, collected in PMC9811451.

In the data set the target is ACE2 (Homo sapiens) (UniProt Q9BYF1).

pKd: −log10 of the molar value.

ACE2 (Homo sapiens), sequence (Q9BYF1 18-740): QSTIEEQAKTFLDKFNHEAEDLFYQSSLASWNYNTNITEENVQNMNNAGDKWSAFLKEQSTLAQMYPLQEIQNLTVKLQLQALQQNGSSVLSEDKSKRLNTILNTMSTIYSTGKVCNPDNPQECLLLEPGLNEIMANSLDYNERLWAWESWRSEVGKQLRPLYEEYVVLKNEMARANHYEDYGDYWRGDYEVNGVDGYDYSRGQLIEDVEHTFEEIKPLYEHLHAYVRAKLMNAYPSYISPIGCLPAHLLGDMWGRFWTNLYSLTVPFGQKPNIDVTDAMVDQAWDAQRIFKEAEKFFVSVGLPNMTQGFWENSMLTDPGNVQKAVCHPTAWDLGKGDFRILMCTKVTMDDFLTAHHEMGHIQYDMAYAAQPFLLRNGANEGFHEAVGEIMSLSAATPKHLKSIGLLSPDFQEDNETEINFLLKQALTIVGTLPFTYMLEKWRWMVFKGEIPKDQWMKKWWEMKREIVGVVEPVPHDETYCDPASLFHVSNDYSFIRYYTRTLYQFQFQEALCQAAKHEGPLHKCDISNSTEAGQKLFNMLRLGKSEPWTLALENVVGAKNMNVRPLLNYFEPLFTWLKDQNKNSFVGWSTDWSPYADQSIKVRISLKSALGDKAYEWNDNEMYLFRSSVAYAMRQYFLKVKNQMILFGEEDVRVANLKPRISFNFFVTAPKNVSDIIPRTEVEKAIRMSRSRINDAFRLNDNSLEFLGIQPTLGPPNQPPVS

On to Spike (from UniProt P0DTC2), for which the negative logarithm of the Kd (pKd) (as a rule, the Kd on a negative log10 scale, so that one unit is a factor of ten) is 8.40.
